The source of these data is patent publication US10435681B2, “Compounds and methods for stabilizing thrombin activity” (Omrix Biopharmaceuticals Ltd., priority 2013, dated 2019).

Entries after “also recorded” stand apart in the source; their conditions may differ. Where a name gives a salt, the structure may show the parent alone. Bridges are numbered along the chain shown (N, C = ends). Where no end group is shown, it is not given here.

Assay [1] deals with T1, thrombin (Homo sapiens, UniProt P00734).
T1 construct: yields the active alpha thrombin molecule which is a 295 amino acid polypeptide (human) composed of a heavy and light chain
The assay is described as follows: Thrombin stability testing: remaining clotting activity of 1000 IU/ml liquid thrombin after storage at 37° C. Type of assay: biochemical. The following applies: for stabilization of thrombin activity (in words): 0.5 mM peptide, 1000 IU/ml thrombin, 37° C., 0, 3 and 7 days; for maintaining thrombin activity compared with 0.5 mM gamma loop peptide (in words): 3% (w/v) arginine. How it is done: Aqueous liquid thrombin, in its purified and concentrated form 1000 international units IU/ml may undergo autolysis at room temperature causing a significant loss of activity e.g. towards a heterologous substrate. E.g. thrombin activity towards a heterologous substrate is reduced when a liquid thrombin formulation is incubated at room temperature for prolonged periods of time (e.g. 72 to 144 hours), inter alia, due to autolytic degradation. The decrease of thrombin activity towards a heterologous substrate in aqueous liquid solution can be assessed by measuring thrombin activity after prolonged periods of time and under permissive temperature (e.g. 37° C.). In the following experiments, the effect of a peptide on the stability of thrombin was studied under different conditions.
Aqueous liquid purified and concentrated thrombin (1000 IU/ml; equivalent to about 10 μM) was aliquoted and placed in a 37° C. incubator for 3 days (72 hours), 7 days (168 hours) and 14 days (336 hours). Prior to incubation, thrombin samples were spiked with indicated amounts of different tested peptides or with a control thrombin inhibitor: benzamidine or arginine *HCl (“arginine”). Specific peptides, their concentrations, and thrombin inhibitors used are indicated in each Example. Following the incubation period, the samples were frozen at −80° C. until testing the thrombin activity. Just before thrombin activity assay testing, all the samples were thawed and 100-fold diluted into a dilution buffer (0.4% tri-sodium citrate di-hydrate, 0.9% sodium chloride and 1% BSA, pH=7.5) to bring the thrombin concentration in the sample to that within the specifications of the assay (4-10 IU/ml) and to dilute the tested peptides in the sample to a negligible concentration.
(§1) Thrombin activity was assessed by clotting time measurements using STart4 Coagulation Instrument (DIAGNOSTICA STAGO™, Asnieres sur Seine, France). The assay is a modification of the European Pharmacopoeia Assay procedure, 1997, 0903, p. 858. Briefly, a calibration curve was prepared by mixing thrombin standard with a fibrinogen solution of 0.1% fibrinogen content (Enzyme Research Laboratories, Ind., USA). Thrombin concentration in the different tested samples was then calculated from the calibration curve by their clotting time (the concentration was extrapolated from the calibration curve).
For stability testing of 1000IU/ml thrombin following storage with or without peptides, testing was carried out as described above. Dilutions (1:100) were carried out before measuring the activity.
All of these peptides (“mutant gamma loop peptides” identified in Example 3, random peptides, thrombin derived peptides, and “gamma loop binding peptides” mentioned above) were tested for their ability to stabilize thrombin activity at a concentration of 0.5 mM as described in Example 2.

For assay [2], the target named is T1, thrombin. The assay is described as follows: Peptide microarray binding with fluorescently labelled thrombin. Conditions: for Binding intensity of thrombin (100 μg/ml): DYLIGHT 650-Thrombin; for binding to thrombin (in words): fluorescent thrombin. How it is done: A screen was carried out to identify gamma loop mutants that may show improved binding to thrombin. This was carried out with fluorescent thrombin on an array of gamma loop peptide mutants. Three such cyclized peptides with the highest binding efficiency were tested for their capacity to stabilize thrombin without compromising thrombin activity towards fibrinogen (see Example 4 below).
A library of 1,676 15-meric peptides spanning the sequences of proteins interacting with the gamma loop of thrombin such as thrombin itself, anti-thrombin III (ATIII), thrombomodulin, heparin cofactor II, bovine pancreatic trypsin inhibitor (BPTI), and hirudin, and modifications of the thrombin gamma loop sequence were generated. Peptides were synthesized using SPOT synthesis (Wenschuh H, et al. (2000). Coherent membrane supports for parallel microsynthesis and screening of bioactive peptides. Biopolymers 55:188-206) and were chemoselectively immobilized onto functionalized glass slides as described (Panse S, et al. (2004) Profiling of generic anti-phosphopeptide antibodies and kinases with peptide microarrays using radioactive and fluorescence-based assays. Mol Divers 8:291-299.2.). Each peptide was printed in triplicates onto the microarray. For binding studies, 100 μg of purified thrombin (Omrix biopharmaceuticals) were directly labeled with DYLIGHT® 650 Microscale Antibody Labeling Kits, THERMO SCIENTIFIC™ (#84536) and diluted in blocking buffer SUPERBLOKTM T20 (TBS) Blocking Buffer, THERMO SCIENTIFICTM (#37536). […] cyclic gamma-loop derived peptide for one hour at 30° C. in a HS4800™ microarray processing station (Tecan) (Masch A, et al., (2010) Antibody signatures defined by high-content peptide microarray analysis. Methods Mol Biol 669:161-172).
(§2) Microarrays were washed with 0.1% TWEEN®20 in 1× TBS followed by 0.05% TWEEN®20 in 0.1× SSC and dried in a stream of nitrogen. Each microarray was scanned using GENEPIX® Autoloader 4200AL (Molecular Devices, Pixel size: 10 μm). Signal intensities were evaluated using spot recognition software GENEPIX® Pro 7.0 analysis software (Molecular Devices). For each peptide, the mean signal intensity of the three triplicates was extracted. Further evaluation and representation of results was performed using the statistical computing and graphics software R (Version 2.11.1, www.r-project.org).
(§3) One array included peptides based on the thrombin sequence. Any peptide isolated from this library may reflect possible regions in the thrombin protein that may interact with the gamma loop. […] The fluorescence for the strongest binding candidates (hits) was quantified on an arbitrary scale of 0-65535 (2^16). Thrombin activity was assesed as described in Example 1.

Assay [3] deals with T2, gamma loop of thrombin (Homo sapiens, UniProt P00734).
T2 construct: Fluorescein-labeled cyclic gamma-loop derived peptide; made in house; host or cells: chemical synthesis
The assay is described as follows: Peptide microarray binding screen with fluorescent gamma loop peptide. Conditions: scale 0-65535. As to the method: Based on the results disclosed in Example 2, the gamma loop peptide was used as a bait to find additional peptides which may positively affect the stability of thrombin. For this purpose, a binding screen was carried out using a fluorescent gamma loop peptide incubated with several peptide arrays.
A library of 1,676 15-meric peptides spanning the sequences of proteins interacting with the gamma loop of thrombin such as thrombin itself, anti-thrombin III (ATIII), thrombomodulin, heparin cofactor II, bovine pancreatic trypsin inhibitor (BPTI), and hirudin, and modifications of the thrombin gamma loop sequence were generated. Peptides were synthesized using SPOT synthesis (Wenschuh H, et al. (2000). Coherent membrane supports for parallel microsynthesis and screening of bioactive peptides. Biopolymers 55:188-206) and were chemoselectively immobilized onto functionalized glass slides as described (Panse S, et al. (2004) Profiling of generic anti-phosphopeptide antibodies and kinases with peptide microarrays using radioactive and fluorescence-based assays. Mol Divers 8:291-299.2.). Each peptide was printed in triplicates onto the microarray. For binding studies, 100 μg of purified thrombin (Omrix biopharmaceuticals) were directly labeled with DYLIGHT® 650 Microscale Antibody Labeling Kits, THERMO SCIENTIFIC™ (#84536) and diluted in blocking buffer SUPERBLOKTM T20 (TBS) Blocking Buffer, THERMO SCIENTIFICTM (#37536). The microarrays were incubated with 10 μg/ml DYLIGHT® 650-Thrombin or a Fluorescein-labeled cyclic gamma-loop derived peptide for one hour at 30° C. in a HS4800™ microarray processing station (Tecan) (Masch A, et al., (2010) Antibody signatures defined by high-content peptide microarray analysis. Methods Mol Biol 669:161-172).
as §2, §3

Assay [4] concerns the target T1, thrombin. The assay is described as follows: Thrombin inhibition testing: clotting activity of 10 IU/ml thrombin towards fibrinogen in the presence of the additive. It is filed as biochemical. Conditions: for inhibition of thrombin activity: 0.5 mM additive; for inhibition of thrombin activity / reduction/inhibition of thrombin activity: 10 IU/ml thrombin. How it is done: as §1
For inhibition testing, the clotting activity of 10 IU/ml thrombin was measured in the presence or absence of peptides.
The assay was carried out as described in Example 1.

For “CKETWTANVLKC (disulfide 1-12 (inferred)) [SEQ ID NO:6, cyclized mutant gamma loop peptide]”, the “stabilization of thrombin activity (in words)” value (shortened to “stabilization”) in assay [1] is “inefficient”.

Turning to “NITRSGIESQLWRSR [Thr_031_CS, thrombin derived peptide, Cysteine replaced by Serine]”, the “Binding intensity of thrombin (100 μg/ml)” value in assay [2] stood at 18537. In assay [3], the “Binding intensity of gamma loop” value worked out at 40787 arbitrary units. Besides, the entries for the “stabilization” value in assay [1] and in assay [1] (listed as SEQ ID NO:9) were “some stabilization effect” and “capable of stabilizing liquid aqueous thrombin”, respectively.

For the compound KETWTANVGK [SEQ ID NO:1], the “inhibition of thrombin activity” value in assay [4] is reported as “about 20%”.

Take “CKETWTANVGKC (disulfide 1-12 (inferred)) [SEQ ID NO:3, gamma loop peptide cyclized with terminal cysteine residues]”: in assay [1], the “stabilization” value is “efficient stabilization of thrombin activity; also recorded: capable of stabilizing liquid aqueous thrombin”.

Turning to `N=C(N)c1ccccc1` [Benzamidine], the “inhibition of thrombin activity” value in assay [4] amounted to 20%.

With “SGIESQLWRSRYPHK [Thr_032_CS, thrombin derived peptide, Cysteine replaced by Serine]”, the “Binding intensity of thrombin (100 μg/ml)” value in assay [2] worked out at 15079. In addition, the “Binding intensity of gamma loop” value in assay [3] turned out to be 35117 arbitrary units. Further, the “stabilization” value in assay [1] was “some stabilization effect”; in assay [1] (listed as SEQ ID NO:10), “capable of stabilizing liquid aqueous thrombin”.

On to “CKNTWTANVGKC (disulfide 1-12 (inferred)) [SEQ ID NO:4, cyclized mutant gamma loop peptide]”, for which the “stabilization” value in assay [1] is “inefficient”.

With “RIRITDNMFSAGYKP [Thr_136_CS, thrombin derived peptide, Cysteine replaced by Serine]”, in assay [2], the “Binding intensity of thrombin (100 μg/ml)” value came out at 5535 and the “binding to thrombin (in words)” value is “weakest fluorescent signal”. Also, the “Binding intensity of gamma loop” value in assay [3] was 25278 arbitrary units. Also, the “stabilization” value in assay [1] was “least effective; also recorded: weaker stabilization effect”. The “stabilization” value in assay [1] (listed as SEQ ID NO:11) was “capable of stabilizing liquid aqueous thrombin”.

On to “CKETWTAYVGKC (disulfide 1-12 (inferred)) [SEQ ID NO:5, cyclized mutant gamma loop peptide]”, for which the “stabilization” value in assay [1] was “inefficient”.

Turning to “WCYVAGKPGDFGYCD [Thr_069, thrombin derived peptide]”, in assay [2], the “Binding intensity of thrombin (100 μg/ml)” value is reported as 3141 and the “binding to thrombin (in words)” value is “very weak binding to thrombin”. Besides, the “Binding intensity of gamma loop” value in assay [3] worked out at 50553 arbitrary units. Besides, in assay [1], the “stabilization” value is “minimal effect on thrombin stability; also recorded: weaker stabilization effect”. Moreover, in assay [1] (listed as SEQ ID NO:7), the “stabilization” value was “capable of stabilizing liquid aqueous thrombin”.

For `N=C(N)NCCC[C@H](N)C(=O)O` [arginine, arginine*HCl], the “thrombin activity following storage (in words)” value in assay [1] (0.5-5% (w/v) arginine, concentrated thrombin, up to 48 hours at 37° C.) is listed as “maintained thrombin activity following storage”. Moreover, the “maintaining thrombin activity compared with 0.5 mM gamma loop peptide (in words)” value is listed as “not more effective” in assay [1] (72 hours at 37° C.) and “only marginally so” in assay [1] (144 hours at 37° C.). Moreover, the “reduction/inhibition of thrombin activity” value is “about 50%” in assay [4] (0.5% (w/v) arginine); 50% in assay [4] (0.5% (w/v) arginine, listed as Arginine); over 95% in assay [4] (2% (w/v) arginine). For the same compound, the “inhibition of thrombin (in words)” value in assay [4] (3% (w/v) arginine, extrapolated from FIG. 2A) is reported as “inhibit thrombin almost entirely”.

As to “ISMLEKIYIHPRYNW [Thr_111, thrombin derived peptide]”, in assay [2], the “Binding intensity of thrombin (100 μg/ml)” value is 60199 and the “binding to thrombin (in words)” value is given as “strongest interaction with thrombin”. In addition, the “Binding intensity of gamma loop” value in assay [3] amounted to 32804 arbitrary units. The “stabilization” value in assay [1] is listed as “increased thrombin degradation; also recorded: destabilization effect”.

With SHNQRFVTYLGSKLG [Rnd_inter_155], the “Binding intensity of thrombin (100 μg/ml)” value in assay [2] amounted to 23646. Also, in assay [3], the “Binding intensity of gamma loop” value was found to be 19539 arbitrary units. The “stabilization” value in assay [1] (listed as SEQ ID NO:13) is recorded as “some stabilization effect; also recorded: capable of stabilizing liquid aqueous thrombin”.
